Assay [1] addresses Baculovirus-produced recombinant purified active human Src (kinase assays) (human) (UniProt P12931). As to the kind of experiment: kinase activity titration (filter-binding Src kinase assay, kinetic fit).
Assay [2] shares this target. As to the kind of experiment: kinase activity titration (filter-binding Src kinase assay, kinetic fit); apparent; increasing RIL alone titrated in the Src kinase reaction with peptide and ATP substrates.

Consider “NS1 wild type (230 aa) from A/Turkey/Italy/977/99 H7N1 (F3) (natural protein)”, for which the Kd in assay [1] worked out at 400 nM.

B1: recombinant human GST-tagged RIL (natural protein)
chain: MPHSVTLRGPSPWGFRLVGGRDFSAPLTISRVHAGSKAALAALCPGDLIQAINGESTELMTHLEAQNRIKGCHDHLTLSVSRPEGRSWPSAPDDSKAQAHRIHIDPEIQDGSPTTSRRPSGTGTGPEDGRPSLGSPYGQPPRFPVPHNGSSEATLPAQMSTLHVSPPPSADPARGLPRSRDCRVDLGSEVYRMLREPAEPVAAEPKQSGSFRYLQGMLEAGEGGDWPGPGGPRNLKPTASKLGAPLSGLQGLPECTRCGHGIVGTIVKARDKLYHPECFMCSDCGLNLKQRGYFFLDERLYCESHAKARVKPPEGYDVVAVYPNAKVELV
B1: the Kd in assay [2] was 80 nM. For the same molecule, in assay [1], the Kd RIL in the presence of F4 (Δ225–230) was determined as 230 nM and the Kd RIL in the presence of F6 (Δ221–230) worked out at 470 nM.

The record behind these values is PMC3215730.
